The text below walks through data of publication PMC9812370 (Cell Reports, 2023).

The assay concerns the target SARS-CoV-2 wild-type (D614G) HexaPro S protein ectodomain (SARS-CoV-2 Wuhan-Hu-1 with D614G …, D614G). As to the kind of experiment: ELISA. Background: An ELISA detects its analyte on a solid surface through an enzyme-linked reagent.

B1: Fab 4A8 (Fab, V domains shown)
VH: EVQLVESGAEVKKPGASVKVSCKVSGYTLTELSMHWVRQAPGKGLEWMGGFDPEDGETMYAQKFQGRVTMTEDTSTDTAYMELSSLRSEDTAVYYCATSTAVAGTPDLFDYYYGMDVWGQGTTVTVSS
VL: EIVMTQSPLSSPVTLGQPASISCRSSQSLVHSDGNTYLSWLQQRPGQPPRLLIYKISNRFSGVPDRFSGSGAGTDFTLKISRVEAEDVGVYYCTQATQFPYTFGQGTKVDIK
With B1, the binding result is “binds”.
